Paper PMC11719849, “Allosteric modulation of the Lon protease via ssDNA binding and local charge changes” (The Journal of Biological Chemistry, 2024)
Positions count from the first letter of the chain named. Names and notes keep the numbering of the source.

Substrate: Nc1ncnc2c1ncn2[C@@H]1O[C@H](COP(=O)(O)OP(=O)(O)OP(=O)(O)O)[C@@H](O)[C@H]1O
Assay: coupled NADH fluorescence ATPase assay
Type: biochemical, Caulobacter vibrioides
Conditions: no ssDNA, FITC-casein present, 0.1 μM Lon6, Mg2+, pH 8.0, 30 °C
Description: coupled NADH fluorescence ATPase assay on Lon

B1: Lon (Caulobacter vibrioides NA1000) (protein)
chain: MSELRTLPVLPLRDIVVFPHMVVPLFVGRDKSVRALEEVMRGDKQILLVTQKNSADDDPAPGDIFEVGVLATVLQLLKLPDGTVKVLVEGKARAAVVSFTDQESYYEAQIGEVSEDDGAGPEAEALSRAVVEQFENYVKLNKKVPPEALASIPQIAEPGKLADSIAAHLSVKIGDKQNLLEIFDVVKRLEKVFALMEGEISVLQVEKKIRSRVKRQMEKTQREYYLNEQMKAIQRELGDPDDARDELIDLEKRIKKTKLSKEARTKAESELKKLRNMSPMSAESTVVRNYLDWLLSIPWGKAKTKKIDLVESEGILDADHYGLEKVKERILEYLAVQARTNSLKGPILCLVGPPGVGKTSLGKSIAKATGREFVRMSLGGVRDEAEIRGHRRTYIGSMPGKVVQSMKKAKTTNAFVLLDEIDKMGSDYRGDPASALLEVLDPSQNSTFGDHYLEVDYDLSQVMFVTTANSLNMPQPLLDRMEIIRIPGYTEDEKLEIAKRHILPKLAKDHGLKPAEFIVPDKAIRDLIRYYTREAGVRSLERELGALARKTVRDLAREKVASITIDDERLAKYAGVKKYRYGETDEVDQVGIVTGLAWTEFGGDILTIEAVKMPGKGRMQITGNLKDVMKESIAAANSYVRSRALQFGIKPPVFEKTDVHIHVPDGATPKDGPSAGIAMALAMVSVLTGIPIRKDIAMTGEITLRGRVTAIGGLKEKLLAALRSGVKTVLIPQENEKDLADVPQTVKDGLEIIPVSTVDEVLKHALTGPLTPVEWNEAEEPITTSAKKDDGDSDAMLTH
notes: Caulobacter Lon from pBAD33-Lon, purified on hydroxyapatite and MonoQ, no tag mentioned
With B1 the Km (Hill fit n 1.2, brackets 95% CI) was 92[67–135] μM.

B2: Lon (Caulobacter vibrioides NA1000; K301A/K303A/K305A/K306A) (protein)
chain: B1 chain with K301A, K303A, K305A, K306A
notes: as for B1
In the case of B2, the Km (Lon4A, Hill fit n 1.2, brackets 95% CI) is reported as 206[134–707] μM.

B3: Lon (Caulobacter vibrioides NA1000; K301E/K303E/K305E/K306E) (protein)
chain: B1 chain with K301E, K303E, K305E, K306E
notes: as for B1
B3 was tested, and the Km (Lon4E, Hill fit n 1.6, brackets 95% CI) was 28[23–28] μM.
